According to patent publication US20190119377A1:

Legend:
[1] = molecular target: CD16 on CD16-transfected NFAT-bla Jurkat cells (UniProt P08637); experiment: competition flow cytometry; displacement of AF488-labelled human IgG1 (25 nM) from CD16-transfected NFAT-bla Jurkat cells
[2] = molecular target: human FcRn on FcRn-transfected 293FS cells (293FS+FcRn+β2m (clone #2)) (human) (UniProt P55899); experiment: competition flow cytometry; displacement of AF488-labelled IgG1 (3.33 nM) from human FcRn-transfected 293FS cells, pH 5.5
Sequence of UniProt P55899 (P55899 24-365, chain 1 of 2): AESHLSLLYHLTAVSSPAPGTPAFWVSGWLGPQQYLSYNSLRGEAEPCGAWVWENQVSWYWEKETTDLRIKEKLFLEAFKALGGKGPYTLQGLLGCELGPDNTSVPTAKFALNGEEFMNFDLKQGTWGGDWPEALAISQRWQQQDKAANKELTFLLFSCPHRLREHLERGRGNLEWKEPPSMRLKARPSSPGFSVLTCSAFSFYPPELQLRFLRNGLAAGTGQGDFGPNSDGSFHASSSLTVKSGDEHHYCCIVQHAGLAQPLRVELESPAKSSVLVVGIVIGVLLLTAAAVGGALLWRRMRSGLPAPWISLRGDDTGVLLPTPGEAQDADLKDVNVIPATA
Sequence of UniProt P55899 (P61769 21-119, chain 2 of 2, further chain): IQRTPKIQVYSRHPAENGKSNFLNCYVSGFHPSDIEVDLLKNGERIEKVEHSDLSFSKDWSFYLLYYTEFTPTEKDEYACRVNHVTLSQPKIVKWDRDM

Sequence of UniProt P08637 (P08637 17-254 limits assumed): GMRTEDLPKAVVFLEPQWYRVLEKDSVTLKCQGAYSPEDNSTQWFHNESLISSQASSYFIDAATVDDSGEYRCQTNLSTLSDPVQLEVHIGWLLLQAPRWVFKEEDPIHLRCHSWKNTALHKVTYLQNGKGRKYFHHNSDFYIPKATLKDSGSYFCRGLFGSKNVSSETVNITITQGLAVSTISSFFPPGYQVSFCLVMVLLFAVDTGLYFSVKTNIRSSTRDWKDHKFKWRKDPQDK

human IgG1 (antibody) gave a Ki [1] of 225 nM and a Ki [2] of 200 nM.
